This is an account of results in PMC11965522.

As usually defined, the Kd is the equilibrium constant for the complex coming apart. Read a low Kd as higher affinity.

The target of one series is Mre11;Rad50 S115E/S116E (Pyrococcus furiosus;Pyrococcus furiosus, UniProt Q8U1N9;P58301 1-426;1-882, |S115E;S116E). The series can be described thus: fluorescence polarization. (In general: Polarisation of emitted light reports the rotation of a fluorescent probe.)
The target of a further series is Mre11;Rad50 R833E/R834E (Pyrococcus furiosus;Pyrococcus furiosus, UniProt Q8U1N9;P58301 1-426;1-882, |R833E;R834E). The series can be described thus: fluorescence polarization.
Series [1] addresses Mre11 K144E;Rad50 full-length (Pyrococcus furiosus;Pyrococcus furiosus, UniProt Q8U1N9;P58301 1-426;1-882, K144E|). The series can be described thus: fluorescence polarization.
Series [2] concerns the target Mre11 K111E;Rad50 full-length (Pyrococcus furiosus;Pyrococcus furiosus, UniProt Q8U1N9;P58301 1-426;1-882, K111E|). The series can be described thus: fluorescence polarization.
The target of series [3] is Mre11 K365E;Rad50 full-length (Pyrococcus furiosus;Pyrococcus furiosus, UniProt Q8U1N9;P58301 1-426;1-882, K365E|). Nature of the series: fluorescence polarization.
For a further series, the target named is Mre11;Rad50 R868E (Pyrococcus furiosus;Pyrococcus furiosus, UniProt Q8U1N9;P58301 1-426;1-882, |R868E). Nature of the series: fluorescence polarization.
The next series concerns the target Mre11;Rad50 full-length (Pyrococcus furiosus;Pyrococcus furiosus, UniProt Q8U1N9;P58301 1-426;1-882, |). Nature of the series: fluorescence polarization.
Series [4] has as its target Mre11 R160E;Rad50 full-length (Pyrococcus furiosus;Pyrococcus furiosus, UniProt Q8U1N9;P58301 1-426;1-882, R160E|). The series can be described thus: fluorescence polarization.
The target of another series is Mre11;Rad50 K172E (Pyrococcus furiosus;Pyrococcus furiosus, UniProt Q8U1N9;P58301 1-426;1-882, |K172E). The series can be described thus: fluorescence polarization.
Series [5] addresses T1, Mre11;Rad50NBD (Pyrococcus furiosus;Pyrococcus furiosus, UniProt Q8U1N9;P58301;P58301 1-426;1-195;709-882, |). The series can be described thus: NMR CSP.
In series [6] the target is T1, Mre11;Rad50NBD. Nature of the series: NMR PRE.
The target of series [7] is T1, Mre11;Rad50NBD. The series can be described thus: NMR CSP titration.

T1 sequence (P58301 1-195, chain 1 of 2): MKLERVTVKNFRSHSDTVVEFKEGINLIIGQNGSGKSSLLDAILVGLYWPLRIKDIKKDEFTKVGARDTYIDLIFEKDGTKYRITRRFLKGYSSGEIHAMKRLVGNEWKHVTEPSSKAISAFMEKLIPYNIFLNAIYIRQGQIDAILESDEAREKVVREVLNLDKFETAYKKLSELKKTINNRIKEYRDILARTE
T1 sequence (P58301 709-882, chain 2 of 2): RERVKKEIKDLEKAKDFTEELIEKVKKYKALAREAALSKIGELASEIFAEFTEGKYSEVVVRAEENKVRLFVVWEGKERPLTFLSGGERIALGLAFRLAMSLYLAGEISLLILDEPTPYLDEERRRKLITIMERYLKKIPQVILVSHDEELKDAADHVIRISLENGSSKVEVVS
Mre11;Rad50 R833E/R834E, sequence (P58301 whole entry R833E/R834E, one chain of several): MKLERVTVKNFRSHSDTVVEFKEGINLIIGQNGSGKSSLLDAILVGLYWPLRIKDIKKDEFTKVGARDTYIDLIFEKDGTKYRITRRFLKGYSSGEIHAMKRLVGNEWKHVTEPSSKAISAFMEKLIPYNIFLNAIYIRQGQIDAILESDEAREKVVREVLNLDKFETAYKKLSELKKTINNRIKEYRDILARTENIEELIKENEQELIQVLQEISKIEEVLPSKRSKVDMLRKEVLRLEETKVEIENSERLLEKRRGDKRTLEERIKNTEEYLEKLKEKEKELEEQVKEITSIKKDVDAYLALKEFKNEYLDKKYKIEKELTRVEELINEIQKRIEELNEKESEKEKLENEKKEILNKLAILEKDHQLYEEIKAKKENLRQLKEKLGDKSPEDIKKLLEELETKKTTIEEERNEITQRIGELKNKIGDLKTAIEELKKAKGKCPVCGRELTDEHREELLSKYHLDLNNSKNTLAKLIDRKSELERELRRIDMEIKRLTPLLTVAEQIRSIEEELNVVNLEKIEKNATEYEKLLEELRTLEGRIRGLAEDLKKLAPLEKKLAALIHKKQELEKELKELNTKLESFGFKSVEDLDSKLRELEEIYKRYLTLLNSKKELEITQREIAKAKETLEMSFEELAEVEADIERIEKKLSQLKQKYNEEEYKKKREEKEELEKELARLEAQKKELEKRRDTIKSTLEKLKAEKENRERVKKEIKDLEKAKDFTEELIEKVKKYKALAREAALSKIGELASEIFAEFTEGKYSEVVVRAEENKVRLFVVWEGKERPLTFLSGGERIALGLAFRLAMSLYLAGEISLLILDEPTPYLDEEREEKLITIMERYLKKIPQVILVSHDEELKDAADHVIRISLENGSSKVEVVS
Mre11 R160E;Rad50 full-length, sequence (P58301 whole entry, stated change not applied, one chain of several): as the sequence (P58301 whole entry R833E/R834E, one chain of several) above, with E833R, E834R counted along it
Mre11;Rad50 full-length, sequence (P58301 whole entry, one chain of several): as the sequence (P58301 whole entry R833E/R834E, one chain of several) above, with E833R, E834R counted along it
Mre11 K144E;Rad50 full-length, sequence (P58301 whole entry, stated change not applied, one chain of several): as the sequence (P58301 whole entry R833E/R834E, one chain of several) above, with E833R, E834R counted along it
Mre11 K111E;Rad50 full-length, sequence (P58301 whole entry, stated change not applied, one chain of several): as the sequence (P58301 whole entry R833E/R834E, one chain of several) above, with E833R, E834R counted along it
Mre11;Rad50 K172E, sequence (P58301 whole entry K172E, one chain of several): as the sequence (P58301 whole entry R833E/R834E, one chain of several) above, with K172E, E833R, E834R counted along it
Mre11 K365E;Rad50 full-length, sequence (P58301 whole entry K365E, one chain of several): as the sequence (P58301 whole entry R833E/R834E, one chain of several) above, with K365E, E833R, E834R counted along it
Mre11;Rad50 R868E, sequence (P58301 whole entry R868E, one chain of several): as the sequence (P58301 whole entry R833E/R834E, one chain of several) above, with E833R, E834R, R868E counted along it
Mre11;Rad50 S115E/S116E, sequence (P58301 whole entry S115E/S116E, one chain of several): as the sequence (P58301 whole entry R833E/R834E, one chain of several) above, with S115E, S116E, E833R, E834R counted along it

B1: 40-mer dsDNA (dsDNA)
DNA 1: GTGTTCGGACTCTGCCTCAAGACGGTAGTCAACGTGCTTG
DNA 2: CAAGCACGTTGACTACCGTCTTGAGGCAGAGTCCGAACAC
For B1, the Kd with Mre11;Rad50 S115E/S116E is 580 ± 60 nM; with Mre11;Rad50 R833E/R834E, 1080 ± 130 nM; in [1], 2120 ± 420 nM; in series [2], 1070 ± 110 nM; in series [3], 710 ± 50 nM; in the series with Mre11;Rad50 R868E it was 750 ± 70 nM. The figures for the Kd (with Mre11;Rad50 full-length; in series [4]; in the series with Mre11;Rad50 K172E) were 590 ± 50 nM, 960 ± 60 nM and 580 ± 30 nM, respectively.

B2: 50-bp dsDNA (dsDNA)
DNA 1: CTGCAGGGTTTTTGTTCCAGTCTGTAGCACTGTGTAAGACAGGCCAGATG
DNA 2: CATCTGGCCTGTCTTACACAGTGCTACAGACTGGAACAAAAACCCTGCAG
Consider B2, for which, in the series with Mre11;Rad50NBD [5], the binding result is “binds”.

B3: hairpin 2S (structured_DNA)
DNA: CACGCACGTAGAAGCTTTTGCTTCTACGTGCGTGAC
modifications: phosphorothioate at nt 2
For the molecule B3, the binding result in the series with Mre11;Rad50NBD [6] is “binds”.

B4: hairpin 30S (structured_DNA)
DNA: CACGCACGTAGAAGCTTTTGCTTCTACGTGCGTGAC
modifications: phosphorothioate at nt 30
On to B4, for which, in the series with Mre11;Rad50NBD [6], the binding result is given as “binds”.

B5: 15-bp hairpin DNA (structured_DNA)
DNA: CACGCACGTAGAAGCTTTTGCTTCTACGTGCGTGAC
B5: the Kd with Mre11;Rad50NBD [7] is approximately 5.4 µM.

B6: hairpin 24S (structured_DNA)
DNA: CACGCACGTAGAAGCTTTTGCTTCTACGTGCGTGAC
modifications: phosphorothioate at nt 24
As to B6, the binding result in the series with Mre11;Rad50NBD [6] is listed as “binds”.

B7: hairpin 6S (structured_DNA)
DNA: CACGCACGTAGAAGCTTTTGCTTCTACGTGCGTGAC
modifications: phosphorothioate at nt 6
Consider B7, for which the binding result with Mre11;Rad50NBD [6] was “binds”.

B8: hairpin 17S (structured_DNA)
DNA: CACGCACGTAGAAGCTTTTGCTTCTACGTGCGTGAC
modifications: phosphorothioate at nt 17
As to B8, in the series with Mre11;Rad50NBD [6], the binding result is recorded as “binds”.

B9: hairpin 36S (structured_DNA)
DNA: CACGCACGTAGAAGCTTTTGCTTCTACGTGCGTGAC
modifications: phosphorothioate at nt 36
Regarding B9, in the series with Mre11;Rad50NBD [6], the binding result is given as “binds”.
